Test results from the supplement of paper PMC9112550, “Optimization of the antimicrobial peptide Bac7 by deep mutational scanning” (BMC Biology, 2022).
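Also: peptides expressed intracellularly from a pBAD plasmid library in pooled LB shake-flask culture, induced with 0.3% L-arabinose, DNA abundance read by NGS, three biological replicates, DESeq2 with apeglm shrinkage.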

What follows are sequences tested on Escherichia coli TOP10 (assay: shrunken log2 fold change of peptide-encoding DNA abundance (4.5 h post-induction vs induction); higher = less antimicrobial activity (less host growth inhibition)). Conditions: time post-induction: 4.5 h; library: site-saturation at positions 5, 18, 19, 20.
With RRIRTRPPRLPRPRPRPHCAPRP the “shrunken log2 fold change” value was -0.0401.
With RRIRTRPPRLPRPRPRPHCQPRP the “shrunken log2 fold change” value was -0.359.
With RRIRTRPPRLPRPRPRPHDKPRP the “shrunken log2 fold change” value was -0.51.
RRIRTRPPRLPRPRPRPHGEPRP was tested, and the “shrunken log2 fold change” value was 0.16.
For RRIRTRPPRLPRPRPRPHHRPRP, the “shrunken log2 fold change” value was -0.655.
For RRIRTRPPRLPRPRPRPHHSPRP, the “shrunken log2 fold change” value was -0.133.
For RRIRTRPPRLPRPRPRPHIAPRP, the “shrunken log2 fold change” value was -0.348.
RRIRTRPPRLPRPRPRPHIDPRP was tested, and the “shrunken log2 fold change” value was -0.0151.
With RRIRTRPPRLPRPRPRPHIMPRP the “shrunken log2 fold change” value was -0.738.
In the case of RRIRTRPPRLPRPRPRPHLHPRP, the “shrunken log2 fold change” value is reported as -0.844.
RRIRTRPPRLPRPRPRPHLQPRP was tested, and the “shrunken log2 fold change” value was -0.321.
With RRIRTRPPRLPRPRPRPHPMPRP the “shrunken log2 fold change” value was -0.167.
RRIRTRPPRLPRPRPRPHPSPRP was tested, and the “shrunken log2 fold change” value was 0.00449.
In the case of RRIRTRPPRLPRPRPRPHQPPRP, the “shrunken log2 fold change” value is reported as -0.0196.
RRIRTRPPRLPRPRPRPHREPRP was tested, and the “shrunken log2 fold change” value was -0.075.
With RRIRTRPPRLPRPRPRPHRVPRP the “shrunken log2 fold change” value was 0.0498.
With RRIRTRPPRLPRPRPRPHTSPRP the “shrunken log2 fold change” value was -0.301.
In the case of RRIRTRPPRLPRPRPRPHVIPRP, the “shrunken log2 fold change” value is reported as -0.192.
For RRIRTRPPRLPRPRPRPHVSPRP, the “shrunken log2 fold change” value was -0.287.
RRIRTRPPRLPRPRPRPHWMPRP was tested, and the “shrunken log2 fold change” value was -0.243.
RRIRTRPPRLPRPRPRPHWSPRP was tested, and the “shrunken log2 fold change” value was -0.147.
In the case of RRIRTRPPRLPRPRPRPHWVPRP, the “shrunken log2 fold change” value is reported as 0.381.
For RRIRTRPPRLPRPRPRPHYKPRP, the “shrunken log2 fold change” value was -0.531.
For RRIRTRPPRLPRPRPRPIACPRP, the “shrunken log2 fold change” value was -0.0974.
RRIRTRPPRLPRPRPRPICAPRP was tested, and the “shrunken log2 fold change” value was 0.0827.
RRIRTRPPRLPRPRPRPICNPRP was tested, and the “shrunken log2 fold change” value was -0.00195.
In the case of RRIRTRPPRLPRPRPRPIDAPRP, the “shrunken log2 fold change” value is reported as -0.0859.
RRIRTRPPRLPRPRPRPIESPRP was tested, and the “shrunken log2 fold change” value was 0.0133.
With RRIRTRPPRLPRPRPRPIGFPRP the “shrunken log2 fold change” value was -0.0989.
In the case of RRIRTRPPRLPRPRPRPIGTPRP, the “shrunken log2 fold change” value is reported as 0.0179.
For RRIRTRPPRLPRPRPRPIGYPRP, the “shrunken log2 fold change” value was -0.0183.
In the case of RRIRTRPPRLPRPRPRPIHMPRP, the “shrunken log2 fold change” value is reported as -0.171.
In the case of RRIRTRPPRLPRPRPRPIIFPRP, the “shrunken log2 fold change” value is reported as -0.0206.
For RRIRTRPPRLPRPRPRPIIGPRP, the “shrunken log2 fold change” value was 0.0211.
With RRIRTRPPRLPRPRPRPIILPRP the “shrunken log2 fold change” value was -0.25.
With RRIRTRPPRLPRPRPRPIIPPRP the “shrunken log2 fold change” value was -0.279.
RRIRTRPPRLPRPRPRPIISPRP was tested, and the “shrunken log2 fold change” value was -0.0891.
For RRIRTRPPRLPRPRPRPIKWPRP, the “shrunken log2 fold change” value was 0.0186.
RRIRTRPPRLPRPRPRPINKPRP was tested, and the “shrunken log2 fold change” value was -0.322.
With RRIRTRPPRLPRPRPRPIQPPRP the “shrunken log2 fold change” value was 0.00206.
In the case of RRIRTRPPRLPRPRPRPIRTPRP, the “shrunken log2 fold change” value is reported as 0.063.
In the case of RRIRTRPPRLPRPRPRPISKPRP, the “shrunken log2 fold change” value is reported as -0.17.
In the case of RRIRTRPPRLPRPRPRPISNPRP, the “shrunken log2 fold change” value is reported as -0.576.
RRIRTRPPRLPRPRPRPITAPRP was tested, and the “shrunken log2 fold change” value was -0.0416.
For RRIRTRPPRLPRPRPRPIVPPRP, the “shrunken log2 fold change” value was -0.229.
RRIRTRPPRLPRPRPRPIWTPRP was tested, and the “shrunken log2 fold change” value was 0.00694.
With RRIRTRPPRLPRPRPRPIYCPRP the “shrunken log2 fold change” value was -0.233.
In the case of RRIRTRPPRLPRPRPRPKAAPRP, the “shrunken log2 fold change” value is reported as 0.565.
For RRIRTRPPRLPRPRPRPKALPRP, the “shrunken log2 fold change” value was 0.293.
With RRIRTRPPRLPRPRPRPKAVPRP the “shrunken log2 fold change” value was 0.26.
RRIRTRPPRLPRPRPRPKCAPRP was tested, and the “shrunken log2 fold change” value was 0.909.
For RRIRTRPPRLPRPRPRPKCRPRP, the “shrunken log2 fold change” value was 0.0762.
RRIRTRPPRLPRPRPRPKCVPRP was tested, and the “shrunken log2 fold change” value was -0.138.
RRIRTRPPRLPRPRPRPKDCPRP was tested, and the “shrunken log2 fold change” value was 0.0164.
For RRIRTRPPRLPRPRPRPKFNPRP, the “shrunken log2 fold change” value was -0.375.
In the case of RRIRTRPPRLPRPRPRPKGQPRP, the “shrunken log2 fold change” value is reported as 0.0118.
For RRIRTRPPRLPRPRPRPKGRPRP, the “shrunken log2 fold change” value was -0.219.
In the case of RRIRTRPPRLPRPRPRPKGTPRP, the “shrunken log2 fold change” value is reported as -0.188.
RRIRTRPPRLPRPRPRPKHAPRP was tested, and the “shrunken log2 fold change” value was 0.0369.
For RRIRTRPPRLPRPRPRPKHRPRP, the “shrunken log2 fold change” value was -0.191.
With RRIRTRPPRLPRPRPRPKHVPRP the “shrunken log2 fold change” value was -0.658.
For RRIRTRPPRLPRPRPRPKIPPRP, the “shrunken log2 fold change” value was -0.21.
For RRIRTRPPRLPRPRPRPKIQPRP, the “shrunken log2 fold change” value was -0.0936.
RRIRTRPPRLPRPRPRPKKLPRP was tested, and the “shrunken log2 fold change” value was -0.298.
For RRIRTRPPRLPRPRPRPKKRPRP, the “shrunken log2 fold change” value was 0.0216.
In the case of RRIRTRPPRLPRPRPRPKKTPRP, the “shrunken log2 fold change” value is reported as 0.0546.
With RRIRTRPPRLPRPRPRPKLNPRP the “shrunken log2 fold change” value was 0.097.
RRIRTRPPRLPRPRPRPKQFPRP was tested, and the “shrunken log2 fold change” value was -0.103.
For RRIRTRPPRLPRPRPRPKTAPRP, the “shrunken log2 fold change” value was -0.0452.
For RRIRTRPPRLPRPRPRPKVFPRP, the “shrunken log2 fold change” value was -0.0334.
With RRIRTRPPRLPRPRPRPKWPPRP the “shrunken log2 fold change” value was 1.51.
In the case of RRIRTRPPRLPRPRPRPKYRPRP, the “shrunken log2 fold change” value is reported as -0.135.
RRIRTRPPRLPRPRPRPKYVPRP was tested, and the “shrunken log2 fold change” value was 0.0339.
RRIRTRPPRLPRPRPRPLACPRP was tested, and the “shrunken log2 fold change” value was 0.0365.
In the case of RRIRTRPPRLPRPRPRPLATPRP, the “shrunken log2 fold change” value is reported as 0.0927.
In the case of RRIRTRPPRLPRPRPRPLCKPRP, the “shrunken log2 fold change” value is reported as -0.257.
For RRIRTRPPRLPRPRPRPLDDPRP, the “shrunken log2 fold change” value was 0.115.
For RRIRTRPPRLPRPRPRPLDNPRP, the “shrunken log2 fold change” value was -0.396.
With RRIRTRPPRLPRPRPRPLDSPRP the “shrunken log2 fold change” value was -0.0239.
For RRIRTRPPRLPRPRPRPLEDPRP, the “shrunken log2 fold change” value was -0.163.
RRIRTRPPRLPRPRPRPLERPRP was tested, and the “shrunken log2 fold change” value was -0.0732.
RRIRTRPPRLPRPRPRPLEYPRP was tested, and the “shrunken log2 fold change” value was -0.668.
RRIRTRPPRLPRPRPRPLGDPRP was tested, and the “shrunken log2 fold change” value was -0.109.
RRIRTRPPRLPRPRPRPLGHPRP was tested, and the “shrunken log2 fold change” value was -0.459.
RRIRTRPPRLPRPRPRPLHWPRP was tested, and the “shrunken log2 fold change” value was 0.111.
For RRIRTRPPRLPRPRPRPLIGPRP, the “shrunken log2 fold change” value was -0.413.
In the case of RRIRTRPPRLPRPRPRPLKMPRP, the “shrunken log2 fold change” value is reported as -0.0458.
For RRIRTRPPRLPRPRPRPLKSPRP, the “shrunken log2 fold change” value was -0.0242.
With RRIRTRPPRLPRPRPRPLNDPRP the “shrunken log2 fold change” value was -0.192.
In the case of RRIRTRPPRLPRPRPRPLNVPRP, the “shrunken log2 fold change” value is reported as -0.0675.
In the case of RRIRTRPPRLPRPRPRPLPHPRP, the “shrunken log2 fold change” value is reported as -0.00316.
With RRIRTRPPRLPRPRPRPLPIPRP the “shrunken log2 fold change” value was -0.0647.
In the case of RRIRTRPPRLPRPRPRPLQYPRP, the “shrunken log2 fold change” value is reported as -0.0374.
For RRIRTRPPRLPRPRPRPLRNPRP, the “shrunken log2 fold change” value was -0.0969.
For RRIRTRPPRLPRPRPRPLRPPRP, the “shrunken log2 fold change” value was 0.864.
For RRIRTRPPRLPRPRPRPLSGPRP, the “shrunken log2 fold change” value was -0.0581.
For RRIRTRPPRLPRPRPRPLTGPRP, the “shrunken log2 fold change” value was -0.0139.
RRIRTRPPRLPRPRPRPLTIPRP was tested, and the “shrunken log2 fold change” value was -0.315.
With RRIRTRPPRLPRPRPRPLVCPRP the “shrunken log2 fold change” value was 0.0682.
RRIRTRPPRLPRPRPRPLVHPRP was tested, and the “shrunken log2 fold change” value was -0.282.
For RRIRTRPPRLPRPRPRPLVKPRP, the “shrunken log2 fold change” value was -0.0793.
In the case of RRIRTRPPRLPRPRPRPLVMPRP, the “shrunken log2 fold change” value is reported as -0.0423.
With RRIRTRPPRLPRPRPRPLVNPRP the “shrunken log2 fold change” value was -0.559.
RRIRTRPPRLPRPRPRPLVTPRP was tested, and the “shrunken log2 fold change” value was -0.227.
With RRIRTRPPRLPRPRPRPLWPPRP the “shrunken log2 fold change” value was 0.216.
RRIRTRPPRLPRPRPRPMCCPRP was tested, and the “shrunken log2 fold change” value was -0.182.
RRIRTRPPRLPRPRPRPMDRPRP was tested, and the “shrunken log2 fold change” value was -0.01.
In the case of RRIRTRPPRLPRPRPRPMDWPRP, the “shrunken log2 fold change” value is reported as -0.05.
RRIRTRPPRLPRPRPRPMEYPRP was tested, and the “shrunken log2 fold change” value was -0.0122.
